US20170362324A1 (Biogen, published 2017)

Columns and labels:
[1] = target: T1, human αvβ5 expressed on BaF3 cells (stably transfected with human αv and β5 subunits) (human, UniProt P06756 31-1048; P18084 24-799); assay: cell-based or functional assay
[2] = target: T2, human soluble αvβ5 protein (extracellular domains of human αv and β5 integrin subunits) (human, UniProt P06756 31-992; P18084 24-719); assay: ELISA, biotin-αvβ5 on streptavidin plate, unpurified antibody
T2 construct: also called biotin-αvβ5; hsαvβ5
T2 sequence (P06756 31-992 limits assumed, chain 1 of 2): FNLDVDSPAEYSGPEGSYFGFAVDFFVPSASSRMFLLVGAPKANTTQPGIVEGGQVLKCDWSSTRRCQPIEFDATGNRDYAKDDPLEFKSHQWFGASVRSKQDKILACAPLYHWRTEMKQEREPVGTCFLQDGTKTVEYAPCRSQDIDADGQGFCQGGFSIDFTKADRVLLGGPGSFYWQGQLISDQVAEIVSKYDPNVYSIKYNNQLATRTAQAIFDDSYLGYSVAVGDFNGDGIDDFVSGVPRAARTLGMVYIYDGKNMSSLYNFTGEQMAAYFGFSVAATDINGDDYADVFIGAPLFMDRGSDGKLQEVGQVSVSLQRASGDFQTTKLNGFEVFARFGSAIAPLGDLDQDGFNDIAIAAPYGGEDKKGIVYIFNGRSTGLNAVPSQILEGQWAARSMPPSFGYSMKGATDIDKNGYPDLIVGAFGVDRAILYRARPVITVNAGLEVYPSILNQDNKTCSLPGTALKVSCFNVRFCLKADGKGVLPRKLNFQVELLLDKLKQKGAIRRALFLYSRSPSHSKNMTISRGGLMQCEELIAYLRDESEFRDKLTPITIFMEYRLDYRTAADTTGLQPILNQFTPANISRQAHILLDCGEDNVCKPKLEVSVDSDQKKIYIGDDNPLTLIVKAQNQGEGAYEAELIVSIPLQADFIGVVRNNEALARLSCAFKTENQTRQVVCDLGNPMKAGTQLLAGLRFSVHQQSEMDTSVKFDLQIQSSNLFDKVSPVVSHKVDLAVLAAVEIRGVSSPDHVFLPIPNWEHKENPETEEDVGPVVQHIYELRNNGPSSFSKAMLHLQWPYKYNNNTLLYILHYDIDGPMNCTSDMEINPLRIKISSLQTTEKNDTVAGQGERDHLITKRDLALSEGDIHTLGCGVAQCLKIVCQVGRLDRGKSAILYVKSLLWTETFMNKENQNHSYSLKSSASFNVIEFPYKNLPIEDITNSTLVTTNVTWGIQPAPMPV
T2 sequence (P18084 24-719 limits assumed, chain 2 of 2): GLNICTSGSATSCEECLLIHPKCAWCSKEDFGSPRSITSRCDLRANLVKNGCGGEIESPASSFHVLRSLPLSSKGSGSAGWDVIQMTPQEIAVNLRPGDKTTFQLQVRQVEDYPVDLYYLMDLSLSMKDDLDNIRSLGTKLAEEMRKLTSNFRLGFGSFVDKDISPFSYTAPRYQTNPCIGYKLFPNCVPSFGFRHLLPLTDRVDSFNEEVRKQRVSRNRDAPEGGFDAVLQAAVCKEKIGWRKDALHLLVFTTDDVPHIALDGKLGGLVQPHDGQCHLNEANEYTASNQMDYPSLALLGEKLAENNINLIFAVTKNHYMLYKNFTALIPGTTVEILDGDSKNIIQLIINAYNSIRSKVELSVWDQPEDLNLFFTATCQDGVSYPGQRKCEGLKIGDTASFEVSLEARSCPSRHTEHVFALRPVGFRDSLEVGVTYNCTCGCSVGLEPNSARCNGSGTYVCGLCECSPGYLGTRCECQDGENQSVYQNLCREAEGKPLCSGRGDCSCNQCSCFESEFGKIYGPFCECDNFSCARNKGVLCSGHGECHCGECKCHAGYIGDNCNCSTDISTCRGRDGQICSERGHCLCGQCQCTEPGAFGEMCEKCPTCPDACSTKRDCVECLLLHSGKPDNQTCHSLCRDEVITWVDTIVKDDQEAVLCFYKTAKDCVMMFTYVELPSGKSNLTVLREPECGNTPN
Description: Solid-Phase αvβ5 Binding Assay (ELISA): A 96-well microtiter plate was precoated with streptavidin (Thermo Scientific Reacti-Bind StreptAvidin Coated High Binding Capacity plate) was used. Biotinylated soluble αvβ5 protein (2 μg/mL) in TBS with 1% BSA was added to the wells, and the plate was incubated for 1 hr at 25° C. The plate was washed with wash buffer (0.05% Tween-20 in PBS), and purified humanized ALULA antibody in TBS containing 1% BSA, 1 mM CaCl2, and 1 mM MgCl2 were added (50 μl/well). The plate was incubated for 1 hr at 25° C., washed, and then incubated for 1 hr with 50 μl/well of […] goat anti-human secondary antibody. Bound antibody was detected using 3,3′,5,5′-tetramethylbenzidine (TMB). Binding was indicated by the absorbency measured at 450 nm.
(§1) Screening of all combinations of heavy chain versions VH0, VH1, VH2, VH3, VH4, or VH5, with light chains VL0, VL1, VL2, or VL3 was carried out using unpurified proteins in conditioned cell media. The binding of each construct to biotin-conjugated human αvβ5 protein was determined using a solid-phase binding assay (ELISA) and by FACS, and the ability of each construct to block ligand binding was determined using a vitronectin cell adhesion assay (Table 1).

[3] = target: T1, human αvβ5 expressed on BaF3 cells …; assay: FACS on αvβ5-BaF3 cells, unpurified antibody
Description: FACS Binding Assay: Cells were washed one time in PBS, and then resuspended in FACS buffer (1×PBS, 1% BSA, 1 mM CaCl₂, and 1 mM MgCl₂). 1×10⁶ cells were then incubated on ice for 1 hr in FACS buffer containing the test antibody in a total volume of 50 μl. After incubation, the cells were washed two times with ice cold FACS buffer, resuspended in 50 μl of FACS buffer containing 3 μg/ml goat anti-mouse IgG AlexaFluor488 (Jackson ImmunoResearch), and incubated on ice for 30 min. The cells were then washed twice with ice cold FACS buffer and fixed in 1% PFA overnight. Cell aggregates were removed by filtering through 40 μm filter plates (Millipore) and binding of the labeled secondary antibody was monitored by flow cytometry using a FACS Calibur (BD Biosciences).
as §1

T1 sequence (P06756 31-1048 limits assumed, chain 1 of 2): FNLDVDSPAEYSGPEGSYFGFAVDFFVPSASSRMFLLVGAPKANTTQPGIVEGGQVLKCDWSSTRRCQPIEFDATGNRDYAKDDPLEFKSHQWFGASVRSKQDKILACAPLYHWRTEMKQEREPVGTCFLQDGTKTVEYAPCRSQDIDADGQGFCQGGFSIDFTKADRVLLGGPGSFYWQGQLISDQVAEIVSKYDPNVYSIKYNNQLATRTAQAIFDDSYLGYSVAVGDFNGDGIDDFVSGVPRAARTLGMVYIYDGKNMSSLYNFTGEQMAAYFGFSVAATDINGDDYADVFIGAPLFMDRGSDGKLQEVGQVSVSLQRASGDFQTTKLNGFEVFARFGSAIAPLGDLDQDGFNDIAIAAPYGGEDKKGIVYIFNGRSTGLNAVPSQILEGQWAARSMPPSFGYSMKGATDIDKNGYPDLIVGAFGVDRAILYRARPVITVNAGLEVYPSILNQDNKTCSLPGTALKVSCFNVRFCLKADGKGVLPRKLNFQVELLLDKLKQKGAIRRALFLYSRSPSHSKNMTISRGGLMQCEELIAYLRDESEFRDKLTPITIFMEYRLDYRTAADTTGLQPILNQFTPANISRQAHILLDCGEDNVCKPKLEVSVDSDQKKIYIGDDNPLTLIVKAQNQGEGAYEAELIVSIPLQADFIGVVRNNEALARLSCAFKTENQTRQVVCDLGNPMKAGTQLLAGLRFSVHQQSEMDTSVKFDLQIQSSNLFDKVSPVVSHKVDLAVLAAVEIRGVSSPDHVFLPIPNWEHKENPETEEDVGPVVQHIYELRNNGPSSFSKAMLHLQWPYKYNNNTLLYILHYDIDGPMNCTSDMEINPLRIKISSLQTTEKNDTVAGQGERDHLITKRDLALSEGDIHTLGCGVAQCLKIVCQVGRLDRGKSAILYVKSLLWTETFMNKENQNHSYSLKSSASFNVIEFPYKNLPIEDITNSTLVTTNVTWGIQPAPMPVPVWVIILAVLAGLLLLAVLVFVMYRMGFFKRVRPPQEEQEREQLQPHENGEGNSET
T1 sequence (P18084 24-799 limits assumed, chain 2 of 2): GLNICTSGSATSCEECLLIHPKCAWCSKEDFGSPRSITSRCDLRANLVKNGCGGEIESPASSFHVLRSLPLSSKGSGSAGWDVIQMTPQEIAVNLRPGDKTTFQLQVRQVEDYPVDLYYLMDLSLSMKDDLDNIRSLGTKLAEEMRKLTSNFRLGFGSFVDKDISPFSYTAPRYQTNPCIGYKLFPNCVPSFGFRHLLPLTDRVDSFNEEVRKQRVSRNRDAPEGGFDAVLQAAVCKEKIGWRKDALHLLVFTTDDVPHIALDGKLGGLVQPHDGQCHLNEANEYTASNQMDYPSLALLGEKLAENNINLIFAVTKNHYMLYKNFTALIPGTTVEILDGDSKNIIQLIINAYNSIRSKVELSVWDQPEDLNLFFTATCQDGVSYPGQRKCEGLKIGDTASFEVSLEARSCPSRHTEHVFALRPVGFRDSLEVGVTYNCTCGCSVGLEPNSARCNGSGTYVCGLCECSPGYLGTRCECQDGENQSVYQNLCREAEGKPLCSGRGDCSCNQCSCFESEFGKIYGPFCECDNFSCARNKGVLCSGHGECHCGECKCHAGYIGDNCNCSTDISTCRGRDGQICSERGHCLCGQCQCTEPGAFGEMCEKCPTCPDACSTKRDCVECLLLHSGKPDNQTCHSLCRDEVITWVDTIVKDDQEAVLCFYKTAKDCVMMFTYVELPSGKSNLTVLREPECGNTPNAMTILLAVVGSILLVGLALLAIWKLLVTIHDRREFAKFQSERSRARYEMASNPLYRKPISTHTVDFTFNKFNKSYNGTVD

Binder	VN adhesion inhibition, αvβ5-BaF3 (IC50, nM) [1]	EC50 [2]	EC50 [3]
VH1/VL0 Agly-hIgG1(T299A) (antibody, V domains shown, also called H1/L0) VH: EVQVVESGGGLVKPGGSLRLSCAASGYTFTSYWMHWVRQAPGKGLEWVGAIYPGNSDTSYNQKFKGRFTISADTSKNTLYLQMNSLKTEDTAVYYCTTTTYGYDWFAYWGQGTLVTVSS VL: DIQMTQSPSSVSASVGDRVTITCKSSQSVLYSSNQKNYLAWYQQKPGKAPKLLIYWASTRESGVPSRFSGSGSGTDFTLTISSLQPEDFATYYCHQYLSSLTFGQGTKVEIK	3300 nM	1 nM	3680 nM
VH1/VL1 Agly-hIgG1(T299A) (antibody, V domains shown, also called H1/L1) VH: EVQVVESGGGLVKPGGSLRLSCAASGYTFTSYWMHWVRQAPGKGLEWVGAIYPGNSDTSYNQKFKGRFTISADTSKNTLYLQMNSLKTEDTAVYYCTTTTYGYDWFAYWGQGTLVTVSS VL: DIQMTQSPSSLSASVGDRVTMTCKSSQSVLYSSNQKNYLAWYQQKPGKAPKLLIYWASTRESGVPDRFSGSGSGTDFTLTISSLQPEDFATYYCHQYLSSLTFGQGTKLEIK	2520 nM	1.9 nM	3360 nM
VH1/VL2 Agly-hIgG1(T299A) (antibody, V domains shown, also called H1/L2) VH: EVQVVESGGGLVKPGGSLRLSCAASGYTFTSYWMHWVRQAPGKGLEWVGAIYPGNSDTSYNQKFKGRFTISADTSKNTLYLQMNSLKTEDTAVYYCTTTTYGYDWFAYWGQGTLVTVSS VL: NIQMTQSPSSLSASVGDRVTMSCKSSQSVLYSSNQKNYLAWYQQKPGKSPKLLIYWASTRESGVPDRFTGSGSGTDFTLTISSLQPEDFATYYCHQYLSSLTFGQGTKLEIK	1730 nM	2.3 nM	5370 nM
VH2/VL1 Agly-hIgG1(T299A) (antibody, V domains shown, also called H2/L1) VH: EVQVVQSGGGLVKPGESLRLSCAASGYTFTSYWMHWVKQAPGKGLEWVGAIYPGNSDTSYNQKFKGKFTISADTSSNTAYLQMNSLKTEDTAVYYCTTTTYGYDWFAYWGQGTLVTVSS VL: DIQMTQSPSSLSASVGDRVTMTCKSSQSVLYSSNQKNYLAWYQQKPGKAPKLLIYWASTRESGVPDRFSGSGSGTDFTLTISSLQPEDFATYYCHQYLSSLTFGQGTKLEIK	318 nM	1 nM	405 nM
VH2/VL3 Agly-hIgG1(T299A) (antibody, V domains shown, also called H2/L3) VH: EVQVVQSGGGLVKPGESLRLSCAASGYTFTSYWMHWVKQAPGKGLEWVGAIYPGNSDTSYNQKFKGKFTISADTSSNTAYLQMNSLKTEDTAVYYCTTTTYGYDWFAYWGQGTLVTVSS VL: DIQMTQSPSSLTVSVGDRVTMSCKSSQSVLYSSNQKNYLAWYQQKPGKSPKLLIYWASTRESGVPDRFTGSGSGTDFTLTISSVQPEDFATYYCHQYLSSLTFGAGTKLEIK	303 nM	1 nM	990 nM
VH3/VL1 Agly-hIgG1(T299A) (antibody, V domains shown, also called H3/L1) VH: EVQVVESGGGLVKPGGSLRLSCKASGYTFTSYWMHWVKQAPGKGLEWVGAIYPGNSDTSYNQKFKGKFTLSAVTSSNTAYLQMNSLKTEDTAVYYCTTTTYGYDWFAYWGQGTLVTVSS VL: DIQMTQSPSSLSASVGDRVTMTCKSSQSVLYSSNQKNYLAWYQQKPGKAPKLLIYWASTRESGVPDRFSGSGSGTDFTLTISSLQPEDFATYYCHQYLSSLTFGQGTKLEIK	360 nM	1.2 nM	1930 nM
VH3/VL3 Agly-hIgG1(T299A) (antibody, V domains shown, also called H3/L3) VH: EVQVVESGGGLVKPGGSLRLSCKASGYTFTSYWMHWVKQAPGKGLEWVGAIYPGNSDTSYNQKFKGKFTLSAVTSSNTAYLQMNSLKTEDTAVYYCTTTTYGYDWFAYWGQGTLVTVSS VL: DIQMTQSPSSLTVSVGDRVTMSCKSSQSVLYSSNQKNYLAWYQQKPGKSPKLLIYWASTRESGVPDRFTGSGSGTDFTLTISSVQPEDFATYYCHQYLSSLTFGAGTKLEIK	227 nM	1.2 nM	6290 nM
VH4/VL3 Agly-hIgG1(T299A) (antibody, V domains shown, also called H4/L3) VH: EVQVVQSGGGLVKPGESLRLSCKASGYTFTSYWMHWVKQAPGKGLEWVGAIYPGNSDTSYNQKFKGKFTISADTSPNTAYLQMNSLKTEDTAVYYCTTTTYGYDWFAYWGQGTLVTVSS VL: DIQMTQSPSSLTVSVGDRVTMSCKSSQSVLYSSNQKNYLAWYQQKPGKSPKLLIYWASTRESGVPDRFTGSGSGTDFTLTISSVQPEDFATYYCHQYLSSLTFGAGTKLEIK	64.8 nM	1.7 nM	162 nM
VH5/VL3 Agly-hIgG1(T299A) (antibody, V domains shown, also called H5/L3) VH: EVQVQQSGGGLVKPGGSLRLSCKASGYTFTSYWMHWVKQAPGKGLEWVGAIYPGNSDTSYNQKFKGKATLSAVTSPNTAYLQMNSLKTEDTAVYYCTTTTYGYDWFAYWGQGTLVTVSS VL: DIQMTQSPSSLTVSVGDRVTMSCKSSQSVLYSSNQKNYLAWYQQKPGKSPKLLIYWASTRESGVPDRFTGSGSGTDFTLTISSVQPEDFATYYCHQYLSSLTFGAGTKLEIK	72.2 nM	1.4 nM	422 nM
VH0/VL2 Agly-hIgG1(T299A) (antibody, V domains shown, also called H0/L2) VH: EVQLVESGGGLVKPGGSLRLSCAASGYTFTSYWMHWVRQAPGKGLEWVGAIYPGNSDTSYNQKFKGRFTISRDDSKNTLYLQMNSLKTEDTAVYYCTTTTYGYDWFAYWGQGTLVTVSS VL: NIQMTQSPSSLSASVGDRVTMSCKSSQSVLYSSNQKNYLAWYQQKPGKSPKLLIYWASTRESGVPDRFTGSGSGTDFTLTISSLQPEDFATYYCHQYLSSLTFGQGTKLEIK	1970 nM	1 nM	855 nM
VH0/VL3 Agly-hIgG1(T299A) (antibody, V domains shown, also called H0/L3) VH: EVQLVESGGGLVKPGGSLRLSCAASGYTFTSYWMHWVRQAPGKGLEWVGAIYPGNSDTSYNQKFKGRFTISRDDSKNTLYLQMNSLKTEDTAVYYCTTTTYGYDWFAYWGQGTLVTVSS VL: DIQMTQSPSSLTVSVGDRVTMSCKSSQSVLYSSNQKNYLAWYQQKPGKSPKLLIYWASTRESGVPDRFTGSGSGTDFTLTISSVQPEDFATYYCHQYLSSLTFGAGTKLEIK	494 nM	0.9 nM	1270 nM
VH1/VL3 Agly-hIgG1(T299A) (antibody, V domains shown, also called H1/L3) VH: EVQVVESGGGLVKPGGSLRLSCAASGYTFTSYWMHWVRQAPGKGLEWVGAIYPGNSDTSYNQKFKGRFTISADTSKNTLYLQMNSLKTEDTAVYYCTTTTYGYDWFAYWGQGTLVTVSS VL: DIQMTQSPSSLTVSVGDRVTMSCKSSQSVLYSSNQKNYLAWYQQKPGKSPKLLIYWASTRESGVPDRFTGSGSGTDFTLTISSVQPEDFATYYCHQYLSSLTFGAGTKLEIK	1840 nM	2.9 nM	2930 nM
